# Measured values from patent US20250276075A1, “METHODS OF TREATING AXL-EXPRESSING CANCERS WITH ANTI-AXL ANTIBODIES, ANTIBODY FRAGMENTS AND THEIR IMMUNOCONJUGATES” (BIOATLA, INC., priority 2020, published 2025).
# Legend:
# human Axl = target: T1, human Axl (Homo sapiens, UniProt P30530); assay: BA3011 binding to human Axl in TME and normal tissue conditions
# T1 sequence (P30530 26-894): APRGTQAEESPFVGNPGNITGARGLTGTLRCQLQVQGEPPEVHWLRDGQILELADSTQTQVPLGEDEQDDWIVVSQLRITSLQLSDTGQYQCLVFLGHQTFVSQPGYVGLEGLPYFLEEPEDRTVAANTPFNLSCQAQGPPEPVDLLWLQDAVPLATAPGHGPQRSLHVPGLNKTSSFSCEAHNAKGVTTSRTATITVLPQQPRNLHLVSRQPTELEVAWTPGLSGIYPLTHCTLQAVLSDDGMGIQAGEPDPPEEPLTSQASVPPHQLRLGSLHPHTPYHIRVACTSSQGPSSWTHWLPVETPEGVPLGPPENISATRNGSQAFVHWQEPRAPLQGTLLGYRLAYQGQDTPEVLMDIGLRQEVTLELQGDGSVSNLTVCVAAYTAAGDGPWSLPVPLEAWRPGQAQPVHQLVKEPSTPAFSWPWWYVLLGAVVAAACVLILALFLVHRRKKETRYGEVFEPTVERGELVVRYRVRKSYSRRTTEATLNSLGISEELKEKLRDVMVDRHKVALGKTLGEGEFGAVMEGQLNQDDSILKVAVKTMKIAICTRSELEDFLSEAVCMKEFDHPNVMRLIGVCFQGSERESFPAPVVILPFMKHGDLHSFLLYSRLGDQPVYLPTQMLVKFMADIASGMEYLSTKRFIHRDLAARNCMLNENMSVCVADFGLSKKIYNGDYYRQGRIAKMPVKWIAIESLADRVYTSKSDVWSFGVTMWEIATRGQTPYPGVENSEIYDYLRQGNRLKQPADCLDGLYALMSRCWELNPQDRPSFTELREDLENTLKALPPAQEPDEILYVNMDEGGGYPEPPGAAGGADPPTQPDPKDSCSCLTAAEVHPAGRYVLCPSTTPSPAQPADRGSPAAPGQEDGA
# [1] = BA3011 repeat dose intravenous toxicology study in monkey; format: in vivo, cynomolgus monkey
# Protocol: The nonclinical intravenous (IV) toxicity of BA3011 was evaluated in the monkey in an initial dose-range finding study followed by a definitive Good Laboratory Practice repeat dose toxicology study. […] Many of the toxicities observed with BA3011 are similar to other ADCs conjugated to MMAE.
# Based on the results at the 5 and 10 mg/kg/dose, the no-observed-adverse-effect-level (NOAEL) of BA3011 was considered to be 1 mg/kg/dose for both males and females. […] The highest non-severely toxic dose (HNSTD) was 5 mg/kg/dose, with C0 on Day 22 at 111 μg/mL and AUC0-inf at 2370 μg·h/mL.
molecule,measurement,setting,value
"Mecbotamab vedotin (conjugate, chains of the INN, looked up, MC-vc-PAB-MMAE conjugate) VH: EVQLVQSGAEVKKPGATVKISCKVSGYSFWGATMNWIRQPPGKGLEWIGLIKPSNGGTSYNQKFKGRVTISADKSISTAYLQWSSLKASDTAMYYCAHGHYESYEAMDYWGQGTLVTVSS VL: DIQMTQSPSSLSASVGDRVTITCKASQDVVSAVAWYQQKPGQAPRLLIYWQDTRHTGVPSRFSGSGSGTEFTLTISSLQPDDFATYYCQEHFSPPLTFGQGTKVEIK",binding to human Axl,human Axl; conditions mimicking the TME (pH 6.0-7.0),high affinity and specificity
same,binding to human Axl,human Axl; conditions mimicking the normal tissue environment (pH 7.3-7.4),reduced binding
same,pathological changes in lymphoid organs,[1]; 10 mg/kg/dose in males and 5 mg/kg/dose in females,adverse pathological changes in lymphoid organs
same,mortality,"[1]; 10 mg/kg/dose, Days 1 and 22, IV slow bolus",early deaths in females
same,hematological changes,[1]; 5 and 10 mg/kg/dose in both sexes,adverse hematological changes
same,"changes in body weight, electrocardiogram (ECG), ophthalmology, or urinalysis",[1]; any of the dose levels tested,No test article-related changes
same,highest non-severely toxic dose (HNSTD),"[1]; cynomolgus monkey, in vivo",5 mg/kg/dose
